From article PMC10397247
One block for each binder: values may come before it.

Key:
[1] = biological target: T1, 4H3462-bN; assay: two-hybrid library CCNG1;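 note: natural log of median RNA to DNA barcode read ratio; higher means stronger binding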
T1 chain: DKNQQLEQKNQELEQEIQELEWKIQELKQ

[2] = biological target: T2, 4H626-bN; assay: two-hybrid library CCNG1;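 note: natural log of median RNA to DNA barcode read ratio; higher means stronger binding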
T2 chain: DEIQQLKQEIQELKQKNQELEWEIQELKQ

[3] = biological target: T3, 4H3628-bN; assay: two-hybrid library CCNG1;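 note: natural log of median RNA to DNA barcode read ratio; higher means stronger binding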
T3 chain: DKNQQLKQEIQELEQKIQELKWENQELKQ

[4] = biological target: T4, 4H3298-bN; assay: two-hybrid library CCNG1;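 note: natural log of median RNA to DNA barcode read ratio; higher means stronger binding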
T4 chain: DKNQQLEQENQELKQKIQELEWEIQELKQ

[5] = biological target: T5, 4H3175-bN; assay: two-hybrid library CCNG1;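 note: natural log of median RNA to DNA barcode read ratio; higher means stronger binding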
T5 chain: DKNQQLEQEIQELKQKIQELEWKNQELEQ

[6] = biological target: T6, 4H591-bN; assay: two-hybrid library CCNG1;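 note: natural log of median RNA to DNA barcode read ratio; higher means stronger binding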
T6 chain: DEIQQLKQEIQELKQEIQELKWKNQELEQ

[7] = biological target: T7, 4H906-bN; assay: two-hybrid library CCNG1
T7 chain: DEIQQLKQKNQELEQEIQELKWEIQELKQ

[8] = biological target: T8, 4H3613-bN; assay: two-hybrid library CCNG1
T8 chain: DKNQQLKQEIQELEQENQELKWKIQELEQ

[9] = biological target: T9, 4H3414-bN; assay: two-hybrid library CCNG1
T9 chain: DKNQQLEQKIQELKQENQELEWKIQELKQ

[10] = biological target: T10, 4H3277-bN; assay: two-hybrid library CCNG1
T10 chain: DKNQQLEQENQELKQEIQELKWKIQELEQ

[11] = biological target: T11, 4H3497-bN; assay: two-hybrid library CCNG1
T11 chain: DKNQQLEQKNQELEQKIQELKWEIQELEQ

[12] = biological target: T12, 4H3926-bN; assay: two-hybrid library CCNG1
T12 chain: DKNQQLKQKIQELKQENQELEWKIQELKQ

[13] = biological target: T13, 4H486-AA; assay: two-hybrid library CCmax; conditions: mean of both orientations
T13 chain: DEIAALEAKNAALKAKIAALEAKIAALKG

[14] = biological target: T14, 4H967-AA; assay: two-hybrid library CCmax; conditions: mean of both orientations
T14 chain: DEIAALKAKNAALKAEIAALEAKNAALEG

[15] = biological target: T15, 4H380-AA; assay: two-hybrid library CCmax; conditions: mean of both orientations
T15 chain: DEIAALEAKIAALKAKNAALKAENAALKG

[16] = biological target: T16, 4H3855-AA; assay: two-hybrid library CCmax; conditions: mean of both orientations
T16 chain: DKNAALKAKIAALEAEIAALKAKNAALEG

[17] = biological target: T17, 4H_APH; assay: two-hybrid library CCmax; conditions: mean of both orientations
T17 chain: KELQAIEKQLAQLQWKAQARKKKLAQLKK

[18] = biological target: T18, 4H446-AA; assay: two-hybrid library CCmax; conditions: mean of both orientations
T18 chain: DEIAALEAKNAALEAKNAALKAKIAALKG

[19] = biological target: T19, 4H3782-AA; assay: two-hybrid library CCmax
T19 chain: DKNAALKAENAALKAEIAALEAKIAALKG

[20] = biological target: T20, 4H717-AA; assay: two-hybrid library CCmax; conditions: mean of both orientations
T20 chain: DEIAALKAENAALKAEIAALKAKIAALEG

[21] = biological target: T21, 4H918-AA; assay: two-hybrid library CCmax; conditions: mean of both orientations
T21 chain: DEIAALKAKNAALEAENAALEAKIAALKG

[22] = biological target: T22, 4H895-AA; assay: two-hybrid library CCmax; conditions: mean of both orientations
T22 chain: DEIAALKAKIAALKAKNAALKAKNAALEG

[23] = biological target: T23, 4H3969-AA; assay: two-hybrid library CCmax; conditions: mean of both orientations
T23 chain: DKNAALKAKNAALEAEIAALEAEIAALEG

[24] = biological target: T24, 4H568-AA; assay: two-hybrid library CCmax; conditions: mean of both orientations
T24 chain: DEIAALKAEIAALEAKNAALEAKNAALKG

[25] = biological target: T25, 4H3939-AA; assay: two-hybrid library CCmax; conditions: mean of both orientations
T25 chain: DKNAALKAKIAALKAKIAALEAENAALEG

[26] = biological target: T26, 4H953-AA; assay: two-hybrid library CCmax; conditions: mean of both orientations
T26 chain: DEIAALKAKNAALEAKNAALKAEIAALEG

[27] = biological target: GCN2_T; assay: two-hybrid library CCmax
[28] = biological target: T27, 4H_BCR; assay: two-hybrid library CCmax; conditions: mean of both orientations
T27 chain: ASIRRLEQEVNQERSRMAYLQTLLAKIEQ

[29] = biological target: T28, 4H883-AA; assay: two-hybrid library CCmax; conditions: mean of both orientations
T28 chain: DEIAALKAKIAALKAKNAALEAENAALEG

[30] = biological target: T29, 4H797-AA; assay: two-hybrid library CCmax; conditions: mean of both orientations
T29 chain: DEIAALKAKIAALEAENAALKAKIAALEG

[31] = biological target: T30, 4H58-AA; assay: two-hybrid library CCmax; conditions: mean of both orientations
T30 chain: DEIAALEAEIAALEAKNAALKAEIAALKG

[32] = biological target: T31, 4H687-AA; assay: two-hybrid library CCmax; conditions: mean of both orientations
T31 chain: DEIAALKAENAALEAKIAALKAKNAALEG

[33] = biological target: T32, 4H464-AA; assay: two-hybrid library CCmax; conditions: mean of both orientations
T32 chain: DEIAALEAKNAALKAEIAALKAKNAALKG

[34] = biological target: T33, 4H63-AA; assay: two-hybrid library CCmax; conditions: mean of both orientations
T33 chain: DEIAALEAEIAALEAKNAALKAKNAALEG

[35] = biological target: T34, 4H535-AA; assay: two-hybrid library CCmax; conditions: mean of both orientations
T34 chain: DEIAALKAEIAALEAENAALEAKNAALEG

[36] = biological target: 4H_GCN4; assay: two-hybrid library CCmax; conditions: mean of both orientations
[37] = biological target: T35, 4H483-AA; assay: two-hybrid library CCmax; conditions: mean of both orientations
T35 chain: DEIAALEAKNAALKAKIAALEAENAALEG

[38] = biological target: T36, 4H4001-AA; assay: two-hybrid library CCmax; conditions: mean of both orientations
T36 chain: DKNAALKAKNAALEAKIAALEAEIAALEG

[39] = biological target: T37, 4H465-AA; assay: two-hybrid library CCmax; conditions: mean of both orientations
T37 chain: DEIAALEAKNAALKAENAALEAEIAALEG

[40] = biological target: T38, O5-bS; assay: two-hybrid library CCNG1
T38 chain: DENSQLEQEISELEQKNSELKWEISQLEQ

[41] = biological target: T39, P6A-bA; assay: two-hybrid library CCNG1
T39 chain: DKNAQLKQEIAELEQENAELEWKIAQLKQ

[42] = biological target: T40, O4-bS; assay: two-hybrid library CCNG1
T40 chain: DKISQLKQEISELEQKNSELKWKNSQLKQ

[43] = biological target: T41, O8-bS; assay: two-hybrid library CCNG1
T41 chain: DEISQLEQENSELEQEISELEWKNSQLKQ

[44] = biological target: T42, O7-bS; assay: two-hybrid library CCNG1
T42 chain: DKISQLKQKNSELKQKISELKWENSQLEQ

[45] = biological target: T43, O9-bS; assay: two-hybrid library CCNG1
T43 chain: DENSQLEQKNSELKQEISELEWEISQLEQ

[46] = biological target: T44, O3-bS; assay: two-hybrid library CCNG1
T44 chain: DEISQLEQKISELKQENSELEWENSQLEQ

[47] = biological target: T45, O6-bS; assay: two-hybrid library CCNG1
T45 chain: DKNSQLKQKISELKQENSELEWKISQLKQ

Sequence of 4H_GCN4 (chain, as listed by the source): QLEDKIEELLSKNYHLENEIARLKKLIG

interaction score [1]: -0.773
interaction score [2]: -0.521
interaction score [3]: -0.511
interaction score [4]: -0.312
interaction score [5]: 0.818
interaction score [6]: -0.0622
interaction score [7]: -1.02
interaction score [8]: -0.132
interaction score [9]: -0.633
interaction score [10]: 0.658
interaction score [11]: -0.279
interaction score [12]: -0.72
B1: 4H3175-bN (peptide)
chain: DKNQQLEQEIQELKQKIQELEWKNQELEQ

interaction score [13]: 1.41
interaction score [14]: -1.19
interaction score [15]: -1.52
interaction score [16]: -0.587
interaction score [17]: -2.26
interaction score [18]: -1.07
interaction score [19]: 0.893
interaction score [20]: 1.02
interaction score [21]: -0.968
interaction score [22]: -1.54
interaction score [23]: -0.912
interaction score [24]: -1.41
interaction score [25]: -0.413
interaction score [26]: -1.68
interaction score [27]: -1.87
interaction score [28]: -1.19
interaction score [29]: -1.27
interaction score [30]: -1.45
interaction score [31]: -1.38
interaction score [32]: -0.545
interaction score [33]: -0.448
interaction score [34]: -1.44
interaction score [35]: -1.44
interaction score [36]: -2.54
interaction score [37]: -0.902
interaction score [38]: -0.482
interaction score [39]: -1.7
B2: 4H3782-AA (peptide)
chain: DKNAALKAENAALKAEIAALEAKIAALKG

interaction score [40]: 0.221
interaction score [41]: -1.14
interaction score [42]: 2.28
interaction score [43]: -0.691
interaction score [44]: -0.235
interaction score [45]: -1.14
interaction score [46]: -1.46
interaction score [47]: -0.838
B3: O3-bS (peptide)
chain: DEISQLEQKISELKQENSELEWENSQLEQ
